Assay [1] addresses T1, hCD71-Nluc fusion protein (human, UniProt P02786 1-760).
T1 construct: whole, on cells; Used as crude membrane fractions of HEK293 cells stably expressing hCD71-Nluc; also called human transferrin receptor, CD71, fused to NanoLuc; not shown: NanoLuc (ProMega) luciferase joined through its N-terminal Val
Kind of assay: nanoBRET saturation binding, HEK293 hCD71-Nluc membranes, single site fit. (In general: Bioluminescence resonance energy transfer reports proximity on the nanometre scale.)

Assay [2] has as its target T1, hCD71-Nluc fusion protein. Kind of assay: nanoBRET competition, tracer BCY17871-1598988 60 nM, HEK293 hCD71-Nluc membranes.
Assay [3] deals with T1, hCD71-Nluc fusion protein. Described as above. The source holds these as a separate data set.
Assay [4] has as its target T1, hCD71-Nluc fusion protein. Described as above. This is another data set of the same source.
Assay [5] deals with T1, hCD71-Nluc fusion protein. The description is as above. The source holds these as a separate data set.
Experimental: (§1) The mixtures were incubated for 3 hours at room temperature to reach equilibrium. To initiate BRET, 12.4 μL of 100 μM of the Nluc substrate furimazine was added to each well, and the mixtures were incubated for 5-30 minutes. The assay plate was read on a Promega GlowMax Discover plate reader at wavelengths of 450 nm and 600 nm, and the ratio of emissions at wavelengths 450/600 were used to yield % BRET efficiency. Data was subjected to non-linear regression, then fitted to a single site binding hyperbolic function.
(§2) In order to evaluate modified oligonucleotides conjugated to CD71 bicycle ligands and RNAi compounds conjugated to CD71 bicycle ligands, the assay was modified as follows. […] Modified oligonucleotides were conjugated to the bicycle ligands through a SPAAC reaction These were then added at a range of concentrations in triplicate assays points, and the mixtures were incubated for 3 hours at room temperature. BRET was initiated with the addition of furimazine and the assay was completed as described above.
The target in another assay is T2, CD71 (Homo sapiens (Human), UniProt P02786 89-760).
T2 construct: also called transferrin receptor; TfR1
T2 sequence (P02786 89-760 limits assumed, form in doubt): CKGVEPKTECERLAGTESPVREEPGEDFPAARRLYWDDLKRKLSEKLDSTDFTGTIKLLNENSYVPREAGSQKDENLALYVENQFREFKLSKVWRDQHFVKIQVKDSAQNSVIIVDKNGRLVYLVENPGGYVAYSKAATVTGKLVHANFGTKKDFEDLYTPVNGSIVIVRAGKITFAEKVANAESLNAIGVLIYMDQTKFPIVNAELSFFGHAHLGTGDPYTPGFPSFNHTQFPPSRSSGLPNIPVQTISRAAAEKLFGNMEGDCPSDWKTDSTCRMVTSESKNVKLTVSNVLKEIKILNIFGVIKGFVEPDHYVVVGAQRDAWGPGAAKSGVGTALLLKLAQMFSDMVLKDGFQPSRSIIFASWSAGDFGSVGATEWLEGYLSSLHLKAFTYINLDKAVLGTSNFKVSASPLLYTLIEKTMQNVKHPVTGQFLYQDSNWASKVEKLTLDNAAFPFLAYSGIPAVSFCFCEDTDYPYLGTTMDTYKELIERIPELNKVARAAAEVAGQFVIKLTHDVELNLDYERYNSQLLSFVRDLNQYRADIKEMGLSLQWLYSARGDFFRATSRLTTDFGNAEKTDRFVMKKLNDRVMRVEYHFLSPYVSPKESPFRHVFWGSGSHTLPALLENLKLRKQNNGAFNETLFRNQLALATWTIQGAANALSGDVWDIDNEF
Briefly: SPR Biacore X100, conjugate duplexed to biotin-DNA on streptavidin chip, CD71 injected 6.25-100 nM, 1:1 fit. In general terms: Surface plasmon resonance follows binding to a sensor surface in real time, without labels.

For assay [6], the target named is T1, hCD71-Nluc fusion protein. Briefly: nanoBRET competition, tracer BCY17871-1598988 60 nM, HEK293 hCD71-Nluc membranes. The source holds these as a separate data set.
Experimental: as §1, §2
Assay [7] concerns the target T1, hCD71-Nluc fusion protein. Described as above. The source holds these as a separate data set.
Experimental: as §1, §2
Assay [8] has as its target T1, hCD71-Nluc fusion protein. The description is as above. This is another data set of the same source.
Experimental: as §1, §2
Assay [9] addresses T1, hCD71-Nluc fusion protein. Described as above. The source holds these as a separate data set.
Experimental: as §1, §2
The target of assay [10] is T1, hCD71-Nluc fusion protein. The assay is described as above. This is another data set of the same source.
Experimental: as §1, §2

Where two headings read alike, the source gives them in different places.

T1 sequence (P02786 other isoform, or with tags, fused parts or gaps): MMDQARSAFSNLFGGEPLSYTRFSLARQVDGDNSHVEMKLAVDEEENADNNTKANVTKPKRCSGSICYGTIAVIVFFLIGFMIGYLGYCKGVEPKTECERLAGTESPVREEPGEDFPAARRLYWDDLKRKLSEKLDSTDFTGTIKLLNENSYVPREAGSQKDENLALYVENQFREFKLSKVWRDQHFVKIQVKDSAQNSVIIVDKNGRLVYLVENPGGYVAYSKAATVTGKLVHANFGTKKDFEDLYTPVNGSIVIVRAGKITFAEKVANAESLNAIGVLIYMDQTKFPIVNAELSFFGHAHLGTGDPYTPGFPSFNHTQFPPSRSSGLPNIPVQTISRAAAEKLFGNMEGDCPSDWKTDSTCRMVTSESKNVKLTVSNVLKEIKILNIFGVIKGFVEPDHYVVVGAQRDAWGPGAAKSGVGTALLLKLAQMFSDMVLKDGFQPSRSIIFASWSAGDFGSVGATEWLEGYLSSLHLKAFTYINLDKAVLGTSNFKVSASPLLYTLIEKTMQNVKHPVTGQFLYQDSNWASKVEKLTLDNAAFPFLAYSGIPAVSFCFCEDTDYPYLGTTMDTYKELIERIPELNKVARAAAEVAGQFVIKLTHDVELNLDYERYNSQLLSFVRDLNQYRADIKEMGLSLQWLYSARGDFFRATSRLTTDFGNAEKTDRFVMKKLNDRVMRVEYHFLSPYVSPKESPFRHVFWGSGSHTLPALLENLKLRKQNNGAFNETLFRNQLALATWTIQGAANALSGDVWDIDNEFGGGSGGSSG

B1: BCY17871-1598988 (peptide)
peptide: NWNCSPDAHLGCISYCX
modifications: as printed NWNCSPDAHLGCISYC[K(N3)]: N-terminal acetyl; C-terminal amide; three Cys bound to TATB scaffold; [K(N3)] 6-azido lysine at 17 joined by SPAAC to BCN on oligonucleotide 1598988
notes: also called tracer compound
With B1, the Kd (commonly a measure of binding affinity in units of concentration) in [1] lay in the range of 57 to 58 nM.

B2: 1591118-BCY17896 (peptide)
peptide: CPXDAYLGCXSYCX
modifications: as printed CP[HyP]DAYLGC[tBuGly]SYC[K(N3)]: N-terminal acetyl; C-terminal amide; three Cys bound to TATB scaffold; [HyP] 4-trans-hydroxy-L-proline at 3; [tBuGly] t-butyl glycine at 10; [K(N3)] 6-azido lysine at 14 joined via BCN linker to oligonucleotide 1591118
notes: also called Compound No. 1591118 conjugated to BCY17896
With B2, the Ki (usually the dissociation constant of the complex between target and ligand, obtained from inhibition or displacement) in assay [2] was found to be 3.1 nM.

B3: 1453015:1550983-BCY17873 (peptide)
peptide: CSPDAHLGCISYCEPWX
modifications: not fully specified; as printed CSPDAHLGCISYCEPW[K(N3)]: N-terminal acetyl; C-terminal amide; three Cys bound to TATB scaffold; [K(N3)] 6-azido lysine at 17 joined via BCN linker to sense strand 1550983 of the RNAi duplex 1453015:1550983
notes: nucleic acids; also called RNAi compound 1453015:1550983 conjugated to BCY17873
For the molecule B3, the Ki in assay [3] came out at 38 nM; in assay [4], 9 nM.

B4: 1591118-BCY17901 (peptide)
peptide: CPXDAYLGCXSYCEPWX
modifications: as printed CP[HyP]DAYLGC[tBuGly]SYCEPW[K(N3)]: N-terminal acetyl; C-terminal amide; three Cys bound to TATB scaffold; [HyP] 4-trans-hydroxy-L-proline at 3; [tBuGly] t-butyl glycine at 10; [K(N3)] 6-azido lysine at 17 joined via BCN linker to oligonucleotide 1591118
notes: also called Compound No. 1591118 conjugated to BCY17901
B4 yielded a Ki in assay [2] of 1.4 nM.

B5: 1598988-BCY17896 (peptide)
peptide: CPXDAYLGCXSYCX
modifications: as printed CP[HyP]DAYLGC[tBuGly]SYC[K(N3)]: N-terminal acetyl; C-terminal amide; three Cys bound to TATB scaffold; [HyP] 4-trans-hydroxy-L-proline at 3; [tBuGly] t-butyl glycine at 10; [K(N3)] 6-azido lysine at 14 joined via BCN linker to oligonucleotide 1598988
For B5, the affinity in assay [2] corresponds to a Ki of 9.9 nM.

B6: 1598988-BCY17901 (peptide)
peptide: CPXDAYLGCXSYCEPWX
modifications: as printed CP[HyP]DAYLGC[tBuGly]SYCEPW[K(N3)]: N-terminal acetyl; C-terminal amide; three Cys bound to TATB scaffold; [HyP] 4-trans-hydroxy-L-proline at 3; [tBuGly] t-butyl glycine at 10; [K(N3)] 6-azido lysine at 17 joined via BCN linker to oligonucleotide 1598988
For the molecule B6, the affinity in [2], expressed as Ki, was 4.4 nM.

B7: 1590463-BCY17873 (peptide)
peptide: CSPDAHLGCISYCEPWX
modifications: not fully specified; as printed CSPDAHLGCISYCEPW[K(N3)]: N-terminal acetyl; C-terminal amide; three Cys bound to TATB scaffold; [K(N3)] 6-azido lysine at 17 joined via BCN linker to oligonucleotide 1590463
notes: also called Compound No. 1590463 conjugated to BCY17873
Consider B7, for which the Ki in assay [5] was 7 nM; in [6], 6 nM; in [7], 10 nM; in assay [8] it was 1 nM; in assay [9], 4 nM. This molecule also yielded a Kd with CD71 of 12 nM.

B8: 486178:1614438-BCY17873 (peptide)
peptide: CSPDAHLGCISYCEPWX
modifications: not fully specified; as printed CSPDAHLGCISYCEPW[K(N3)]: N-terminal acetyl; C-terminal amide; three Cys bound to TATB scaffold; [K(N3)] 6-azido lysine at 17 joined via BCN linker to oligonucleotide 1614438 of the duplex 486178:1614438
notes: nucleic acids; also called Compound No. 486178:1614438 conjugated to BCY17873
Take B8: affinity in assay [10] was put at a Ki of 95 nM.

The values above are taken from US20240382605A1 (IONIS PHARMACEUTICALS, published 2024).
